Earlier results, collected in publication PMC5979445.

Target: Calmodulin (UniProt P0DP23)

Kd: 54 nM
Substance: TRPV1 CaM binding domain (from UniProt Q8NER1)
